In patent publication US20240116985A1, “STAPLED PEPTIDES AND METHODS THEREOF” (priority 2020, published 2024):
Starred links: 1 amine or outer side, 2 acyl side, 3 side chain; linkers in the order of their positions; H or OH if unused. Positions of bridges follow the written chain, without caps; N, C: chain ends. Non-standard residues stand in square brackets, D forms with d. Primed or numbered codes have the meaning given here. *: point of attachment. PyrS2″ = (S)-3-amino-1-((pent-4-en-1-yloxy)carbonyl)pyrrolidine-3-carboxylic acid (stapling residue), C=CCCCOC(=O)N1CC[C@@](N[*:1])(C(=O)[*:2])C1; B5(4) = 2,2-bis(4-pentenyl)glycine = 2-amino-2-(pent-4-en-1-yl)hept-6-enoic acid (stitching residue), C=CCCCC(CCCC=C)(N[*:1])C(=O)[*:2]; B5(33) = 2-amino-2-(pent-4-en-1-yl)hept-6-enoic acid (bis-pentenylglycine, two olefin side chains), C=CCCCC(CCCC=C)(N[*:1])C(=O)[*:2]; mPEG2 = N-terminal 3-(2-methoxyethoxy)propanoic acid, COCCOCCC(=O)*; Phe(3-COOH) = N[C@@H](Cc1cccc(C(=O)O)c1)C(=O)O; Phe(2-CF3) = N[C@@H](Cc1ccccc1C(F)(F)F)C(=O)O; Phe(4-NH2) = Nc1ccc(C[C@H](N)C(=O)O)cc1; Phe(2-Cl) = N[C@@H](Cc1ccccc1Cl)C(=O)O; Phe(4-Me) = Cc1ccc(C[C@H](N)C(=O)O)cc1; 2Nal = N[C@@H](Cc1ccc2ccccc2c1)C(=O)O; Phe(2-Me) = Cc1ccccc1C[C@H](N)C(=O)O; Abu(4,4-F2) = N[C@@H](CC(F)F)C(=O)O; Bta = N[C@@H](Cc1csc2ccccc12)C(=O)O; αAllylPro = C=CC[C@@]1(C(=O)O)CCCN1; hPhe = N[C@@H](CCc1ccccc1)C(=O)O; tBuAla = CC(C)(C)C[C@H](N)C(=O)O; 2Thi = N[C@@H](Cc1cccs1)C(=O)O; 3Thi = N[C@@H](Cc1ccsc1)C(=O)O; S8 = C=CCCCCCC[C@](C)(N)C(=O)O; Thr(ol) = C[C@@H](O)[C@H](N)CO; Leu(ol) = CC(C)C[C@H](N)CO; Octanoyl = CCCCCCCC(=O)*; Alaol = C[C@@H](CO)N*

B1: I-1260 (peptide)
peptide: XDXXDDAAFTXFXQ
modifications: not fully specified; as printed: MeSO2-PL3-Asp-Npg-B5-Asp-Asp-Ala-Ala-Phe-Thr-S8-2C1F-BztA-Gln-NH2; stapled

The binders below were run against full-length beta-Catenin (Uniprot ID P35222) (Homo sapiens (Human)) (UniProt P35222) (assay: fluorescence polarization competition; full-length beta-catenin + 5FAM-TCF4(10-53) probe).
Target sequence in this assay (P35222 whole entry): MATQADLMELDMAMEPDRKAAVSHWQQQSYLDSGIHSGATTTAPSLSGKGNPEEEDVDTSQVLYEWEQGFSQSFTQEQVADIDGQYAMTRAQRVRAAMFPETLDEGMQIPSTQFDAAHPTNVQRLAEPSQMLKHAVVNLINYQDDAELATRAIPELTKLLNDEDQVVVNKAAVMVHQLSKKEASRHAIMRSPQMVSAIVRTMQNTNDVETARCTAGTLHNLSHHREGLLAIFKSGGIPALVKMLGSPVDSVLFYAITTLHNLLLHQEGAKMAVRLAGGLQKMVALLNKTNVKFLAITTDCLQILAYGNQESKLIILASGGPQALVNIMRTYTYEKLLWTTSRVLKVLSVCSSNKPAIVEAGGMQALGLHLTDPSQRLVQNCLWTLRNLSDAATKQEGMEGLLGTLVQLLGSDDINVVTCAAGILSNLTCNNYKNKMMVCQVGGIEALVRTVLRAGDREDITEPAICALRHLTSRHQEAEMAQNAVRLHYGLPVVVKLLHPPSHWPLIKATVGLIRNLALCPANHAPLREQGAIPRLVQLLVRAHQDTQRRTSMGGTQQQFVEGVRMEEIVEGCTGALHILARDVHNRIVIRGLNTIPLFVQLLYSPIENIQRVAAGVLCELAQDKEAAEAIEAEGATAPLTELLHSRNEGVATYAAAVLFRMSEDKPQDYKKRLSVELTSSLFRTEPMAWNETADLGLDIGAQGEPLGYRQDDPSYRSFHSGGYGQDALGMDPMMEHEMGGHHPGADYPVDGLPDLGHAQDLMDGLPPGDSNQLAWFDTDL

Row | EC50 [nM] | Binder
1 | 23 | B1

These binders were tested against full-length beta-Catenin (Uniprot ID P35222) (Homo sapiens (Human)) (UniProt P35222) (assay: FP competition: displacement of 5FAM-TCF4(10-53) from full-length beta-catenin).
Target sequence in this assay (P35222 whole entry): as above

Row | EC50 [nM] | Binder
2 | 17 | Ac-[αAllylPro]D[tBuAla][B5(4)]DDAAFL[PyrS2″][Phe(2-Cl)][Bta][Thr(ol)] (staple 1-4, 4-11) [I-1249]
3 | 1940 | Ac-[αAllylPro]D[tBuAla][B5(4)]DDAAFL[PyrS2″][Phe(2-Cl)][Bta][Leu(ol)] (staple 1-4, 4-11) [I-1251]
4 | 31 | Ac-[αAllylPro]D[tBuAla][B5(4)]DDAAFL[PyrS2″][Phe(2-Cl)][Bta]-Alaol (staple 1-4, 4-11) [I-1250]
5 | 530 | Octanoyl-[αAllylPro]D[tBuAla][B5(4)]DDAAFT[S8][Phe(2-Cl)][Bta]Q-NH2 (staple 1-4, 4-11) [I-1254]
6 | 32 | mPEG2-[αAllylPro]D[tBuAla][B5(33)]DDAAFT[S8][Phe(2-Cl)][Bta]Q-NH2 (staple 1-4, 4-11) [I-1255]

What follows are binders tested against full-length beta-Catenin (Uniprot ID P35222) (Homo sapiens (Human)) (UniProt P35222) (assay: fluorescence polarization competition; displacement of 5FAM-TCF4(10-53) from full-length beta-catenin).
Target sequence in this assay (P35222 whole entry): as above

Row | EC50 [nM] | Binder
7 | 84 | Ac-[αAllylPro]D[Abu(4,4-F2)][B5(4)]DEAAFQ[S8]F[Bta]Q-NH2 (staple 1-4, 4-11) [I-503]

These binders were tested against full-length beta-Catenin (Uniprot ID P35222) (Homo sapiens (Human)) (UniProt P35222) (assay: fluorescence polarization competition, competitor 5FAM-TCF4 10-53).
Target sequence in this assay (P35222 2-781 limits assumed): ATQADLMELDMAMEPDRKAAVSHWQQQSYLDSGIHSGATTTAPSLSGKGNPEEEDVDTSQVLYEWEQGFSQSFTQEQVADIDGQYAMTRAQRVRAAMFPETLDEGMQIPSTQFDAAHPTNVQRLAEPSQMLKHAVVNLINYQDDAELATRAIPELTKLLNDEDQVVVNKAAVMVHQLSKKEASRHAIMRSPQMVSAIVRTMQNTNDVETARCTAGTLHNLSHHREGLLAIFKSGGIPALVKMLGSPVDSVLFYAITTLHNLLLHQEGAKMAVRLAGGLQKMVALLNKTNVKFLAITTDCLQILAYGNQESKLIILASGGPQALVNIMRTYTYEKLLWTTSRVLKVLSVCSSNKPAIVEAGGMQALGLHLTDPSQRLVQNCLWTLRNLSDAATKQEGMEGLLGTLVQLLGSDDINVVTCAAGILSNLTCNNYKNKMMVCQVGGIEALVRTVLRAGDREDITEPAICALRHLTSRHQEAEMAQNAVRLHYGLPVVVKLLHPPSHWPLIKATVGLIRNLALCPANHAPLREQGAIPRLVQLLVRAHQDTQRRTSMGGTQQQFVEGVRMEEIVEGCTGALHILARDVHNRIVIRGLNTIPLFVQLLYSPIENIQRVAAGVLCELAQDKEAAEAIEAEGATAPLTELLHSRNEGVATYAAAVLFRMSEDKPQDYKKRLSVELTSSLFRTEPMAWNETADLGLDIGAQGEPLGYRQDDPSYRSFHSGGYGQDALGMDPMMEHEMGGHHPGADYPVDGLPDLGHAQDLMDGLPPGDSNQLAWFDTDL

Row | IC50 [nM] | Binder
8 | 17 | Ac-[αAllylPro]D[tBuAla][B5(4)]DDAAFL[PyrS2″][Phe(2-Cl)][Bta][Thr(ol)] (staple 1-4, 4-11) [I-1249]
9 | 1940 | Ac-[αAllylPro]D[tBuAla][B5(4)]DDAAFL[PyrS2″][Phe(2-Cl)][Bta][Leu(ol)] (staple 1-4, 4-11) [I-1251]
10 | 31 | Ac-[αAllylPro]D[tBuAla][B5(4)]DDAAFL[PyrS2″][Phe(2-Cl)][Bta]-Alaol (staple 1-4, 4-11) [I-1250]
11 | 530 | Octanoyl-[αAllylPro]D[tBuAla][B5(4)]DDAAFT[S8][Phe(2-Cl)][Bta]Q-NH2 (staple 1-4, 4-11) [I-1254]
12 | 32 | mPEG2-[αAllylPro]D[tBuAla][B5(33)]DDAAFT[S8][Phe(2-Cl)][Bta]Q-NH2 (staple 1-4, 4-11) [I-1255]
13 | 23 | B1

What follows are binders tested against full-length beta-Catenin (Uniprot ID P35222) (Homo sapiens (Human)) (UniProt P35222) (assay: fluorescence polarization competition; 10 nM full-length beta-catenin + 10 nM 5FAM-TCF4(10-53) probe, peptide titrated 10 uM to 5 nM).
Target sequence in this assay (P35222 2-781 limits assumed): as above

Row | IC50 [nM] | Binder
14 | 75 | Ac-[αAllylPro]D[tBuAla][B5(4)]D[Phe(3-COOH)]QAFL[PyrS2″][Phe(2-CF3)][2Nal]A-NH2 (staple 1-4, 4-11) [I-2461]

What follows are binders tested against full-length beta-Catenin (Uniprot ID P35222) (Homo sapiens (Human)) (UniProt P35222) (assay: fluorescence polarization competition: full-length beta-catenin + 5FAM-TCF4(10-53) probe, peptide titrated).
Target sequence in this assay (P35222 whole entry): as the sequence (P35222 whole entry) above

Row | EC50 [nM] | Binder
15 | 183 | Ac-[αAllylPro]DA[B5(4)]DEAA[Phe(4-Me)]N[S8]F[Bta]Q-NH2 (staple 1-4, 4-11) [I-459]
16 | 53 | Ac-[αAllylPro]DA[B5(4)]DEAA[3Thi]N[S8]F[Bta]Q-NH2 (staple 1-4, 4-11) [I-449]
17 | 2170 | Ac-[αAllylPro]DA[B5(4)]DEAA[Phe(2-Me)]N[S8]F[Bta]Q-NH2 (staple 1-4, 4-11) [I-456]
18 | 125 | Ac-[αAllylPro]DA[B5(4)]DEAA[Phe(4-NH2)]N[S8]F[Bta]Q-NH2 (staple 1-4, 4-11) [I-461]
19 | 4480 | Ac-[αAllylPro]DA[B5(4)]DEAAFN[S8][hPhe][Bta]Q-NH2 (staple 1-4, 4-11; also: staple isomer composition, earlier-eluting HPLC peak) [I-442]
20 | 2130 | Ac-[αAllylPro]DA[B5(4)]DEAAFN[S8][hPhe][Bta]Q-NH2 (staple 1-4, 4-11; also: staple isomer composition, later-eluting HPLC peak) [I-443]
21 | 74 | Ac-[αAllylPro]DA[B5(4)]DEAA[2Thi]N[S8]F[Bta]Q-NH2 (staple 1-4, 4-11; also: staple isomer composition, later-eluting HPLC peak) [I-447]
22 | 1440 | Ac-[αAllylPro]DA[B5(4)]DEAA[Phe(2-Me)]N[S8]F[Bta]Q-NH2 (staple 1-4, 4-11) [I-457]
23 | 130 | Ac-[αAllylPro]DA[B5(4)]DEAA[2Thi]N[S8]F[Bta]Q-NH2 (staple 1-4, 4-11; also: staple isomer composition, earlier-eluting HPLC peak) [I-446]

The binders below were run against full-length beta-Catenin (Uniprot ID P35222) (Homo sapiens (Human)) (UniProt P35222) (assay: fluorescence polarization competition; full-length beta-catenin, competitor 5FAM-TCF4(10-53) probe).
Target sequence in this assay (P35222 whole entry): as above

Row | IC50 [nM] | Binder
24 | 183 | Ac-[αAllylPro]DA[B5(4)]DEAA[Phe(4-Me)]N[S8]F[Bta]Q-NH2 (staple 1-4, 4-11) [I-459]
25 | 53 | Ac-[αAllylPro]DA[B5(4)]DEAA[3Thi]N[S8]F[Bta]Q-NH2 (staple 1-4, 4-11) [I-449]
26 | 2170 | Ac-[αAllylPro]DA[B5(4)]DEAA[Phe(2-Me)]N[S8]F[Bta]Q-NH2 (staple 1-4, 4-11) [I-456]
27 | 125 | Ac-[αAllylPro]DA[B5(4)]DEAA[Phe(4-NH2)]N[S8]F[Bta]Q-NH2 (staple 1-4, 4-11) [I-461]
28 | 4480 | Ac-[αAllylPro]DA[B5(4)]DEAAFN[S8][hPhe][Bta]Q-NH2 (staple 1-4, 4-11; also: staple isomer composition, earlier-eluting HPLC peak) [I-442]
29 | 2130 | Ac-[αAllylPro]DA[B5(4)]DEAAFN[S8][hPhe][Bta]Q-NH2 (staple 1-4, 4-11; also: staple isomer composition, later-eluting HPLC peak) [I-443]
30 | 74 | Ac-[αAllylPro]DA[B5(4)]DEAA[2Thi]N[S8]F[Bta]Q-NH2 (staple 1-4, 4-11; also: staple isomer composition, later-eluting HPLC peak) [I-447]
31 | 1440 | Ac-[αAllylPro]DA[B5(4)]DEAA[Phe(2-Me)]N[S8]F[Bta]Q-NH2 (staple 1-4, 4-11) [I-457]
32 | 130 | Ac-[αAllylPro]DA[B5(4)]DEAA[2Thi]N[S8]F[Bta]Q-NH2 (staple 1-4, 4-11; also: staple isomer composition, earlier-eluting HPLC peak) [I-446]

The binders below were run against full-length beta-Catenin (Uniprot ID P35222) (Homo sapiens (Human)) (UniProt P35222) (assay: FP competition: full-length beta-catenin 10 nM + 5FAM-TCF4(10-53) 10 nM).
Target sequence in this assay (P35222 whole entry): as above

Row | IC50 [nM] | Binder
33 | 84 | Ac-[αAllylPro]D[Abu(4,4-F2)][B5(4)]DEAAFQ[S8]F[Bta]Q-NH2 (staple 1-4, 4-11) [I-503]
